Test results taken from the supplement of paper PMC10567573.

B1: KRT13 (parent)
chain: KTIEELRDKILTATIENNRVILEI

Variants of: B1
Experiment: protein stability index of a GFP-peptide fusion (GPS, HEK-293T) (PSI 1-6); higher = more stable
Details: c terminus: a fixed tail appended
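Further: lentivirally expressed fusions sorted by FACS into six bins by GFP to DsRed ratio, PSI derived from sequencing read proportions per bin multiplied by bin number.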

Going from KTIEELRDKILTVTIENNRVILEI [A13V] to KTIEELRDKILTHTIENNRVILEI [A13H], the protein stability index falls from 3 to 2.38.

Compared with KTIEELRDKILTRTIENNRVILEI [A13R], KTIEELRDKILTDTIENNRVILEI [A13D] is lower in protein stability index: 3.35 for the first, 1.53 for the second.

Compared with KTIEELRDKILTWTIENNRVILEI [A13W], KTIEELRDKILTNTIENNRVILEI [A13N] is lower in protein stability index: 2.81 for the first, 2.31 for the second.

Going from KTIEELRDKILTQTIENNRVILEI [A13Q] to KTIEELRDKILTKTIENNRVILEI [A13K], the protein stability index falls from 1.81 to 1.67.

First: KTIEELRDKILTTTIENNRVILEI [A13T]
Second: KTIEELRDKILTSTIENNRVILEI [A13S]
The protein stability index of the first is lower: 1.92 for the first, 3.69 for the second.

Going from KTIEELRDKILTPTIENNRVILEI [A13P] to KTIEELRDKILTMTIENNRVILEI [A13M], the protein stability index falls from 1.87 to 1.08.

Going from KTIEELRDKILTATIENNRVDLEI [I21D] to KTIEELRDKILTATIENNRVCLEI [I21C], the protein stability index falls from 2.43 to 2.42.

Going from KTIEELRDKILTATIENNRVHLEI [I21H] to KTIEELRDKILTATIENNRVGLEI [I21G], the protein stability index falls from 2.49 to 1.62.

Compared with KTIEELRDKILTATIENNRVNLEI [I21N], KTIEELRDKILTATIENNRVRLEI [I21R] is higher in protein stability index: 1.64 for the first, 2.49 for the second.

Compared with KTIEELRDKILTATIENNRVELEI [I21E], KTIEELRDKILTATIENNRVKLEI [I21K] is lower in protein stability index: 2.19 for the first, 1.74 for the second.

Compared with KTIEELRDKILTATIENNRVFLEI [I21F], KTIEELRDKILTATIENNRVPLEI [I21P] is lower in protein stability index: 3.3 for the first, 2.44 for the second.

Compared with KTIEELRDKILTATIENNRVQLEI [I21Q], KTIEELRDKILTATIENNRVMLEI [I21M] is higher in protein stability index: 1.94 for the first, 2.18 for the second.

Compared with KTIEELRDKILTATIENNRVLLEI [I21L], KTIEELTDKILTATIENNRVILEI [R7T] is lower in protein stability index: 2.52 for the first, 2.16 for the second.

Compared with KTIEELRDPILTATIENNRVILEI [K9P], KTIEELRDEILTATIENNRVILEI [K9E] is lower in protein stability index: 2.84 for the first, 2.7 for the second.

Going from KTIEELRDTILTATIENNRVILEI [K9T] to KTIEELRDGILTATIENNRVILEI [K9G], the protein stability index falls from 2.35 to 2.21.

Going from KTIEELRDNILTATIENNRVILEI [K9N] to KTIEELRDVILTATIENNRVILEI [K9V], the protein stability index rises from 2.29 to 2.86.

Compared with KTIEELRDDILTATIENNRVILEI [K9D], KTIEELRDSILTATIENNRVILEI [K9S] is lower in protein stability index: 2.24 for the first, 1.99 for the second.

First: KTIEELRDFILTATIENNRVILEI [K9F]
Second: KTIEELRDCILTATIENNRVILEI [K9C]
The protein stability index of the first is lower: 2.7 for the first, 3.32 for the second.

Going from KTIEELRDLILTATIENNRVILEI [K9L] to KTIEELRDAILTATIENNRVILEI [K9A], the protein stability index falls from 2.37 to 1.85.

First: KTIEELRAKILTATIENNRVILEI [D8A]
Second: KTIEELRLKILTATIENNRVILEI [D8L]
The protein stability index of the first is higher: 2.49 for the first, 1.77 for the second.

Going from KTIEELRSKILTATIENNRVILEI [D8S] to KTIEELRQKILTATIENNRVILEI [D8Q], the protein stability index falls from 2.79 to 1.67.

Going from KTIEELRYKILTATIENNRVILEI [D8Y] to KTIEELRKKILTATIENNRVILEI [D8K], the protein stability index rises from 2.14 to 2.66.

First: KTIEELRIKILTATIENNRVILEI [D8I]
Second: KTIEELRFKILTATIENNRVILEI [D8F]
The protein stability index of the first is lower: 1.64 for the first, 2.81 for the second.

Compared with KTIEELRMKILTATIENNRVILEI [D8M], KTIEELRPKILTATIENNRVILEI [D8P] is lower in protein stability index: 3.19 for the first, 2.46 for the second.

Going from KTIEELRDKILTATIENNRYILEI [V20Y] to KTIEELRDKILTATIENNRGILEI [V20G], the protein stability index falls from 1.78 to 1.6.

First: KTIEELRDKILTATIENNRTILEI [V20T]
Second: KTIEELRDKILTATIENNRHILEI [V20H]
The protein stability index of the first is higher: 2.33 for the first, 1.6 for the second.

Going from KTIEELRDKILTATIENNRIILEI [V20I] to KTIEELRDKILTATIENNRKILEI [V20K], the protein stability index falls from 2.69 to 2.1.

Compared with KTIEELRDKILTATIENNRLILEI [V20L], KTIEELRDKILTATIENNREILEI [V20E] is lower in protein stability index: 3.48 for the first, 2.27 for the second.

First: KTIEELRDKILTATIENNRPILEI [V20P]
Second: KTIEELRDKILTATIENNRDILEI [V20D]
The protein stability index of the first is lower: 1.78 for the first, 2.35 for the second.

Going from KTIEELRDKILTATIENNRRILEI [V20R] to KTIEELRDKILTATIENNRWILEI [V20W], the protein stability index rises from 1.72 to 3.15.

First: KTIEELRDKILTATIENNRQILEI [V20Q]
Second: KTIEELRDKILTATIENNRFILEI [V20F]
The protein stability index of the first is higher: 2.05 for the first, 1.8 for the second.

Going from KTIEELRDKILTATIENNRNILEI [V20N] to KTIEELRDKILTATIENNRSILEI [V20S], the protein stability index falls from 2.57 to 2.01.

First: KTIEELRDKILTATIENNRAILEI [V20A]
Second: KTIEELRDKILTATIENNHVILEI [R19H]
The protein stability index of the first is lower: 1.82 for the first, 3.1 for the second.

Going from KTIEELRDKILTATIENNEVILEI [R19E] to KTIEELRDKILTATIENNQVILEI [R19Q], the protein stability index rises from 2.47 to 2.64.

Going from KTIEELRDKILTATIENNIVILEI [R19I] to KTIEELRDKILTATIENNGVILEI [R19G], the protein stability index rises from 3 to 3.05.

Compared with KTIEELRDKILTATIENNMVILEI [R19M], KTIEELRDKILTATIENNDVILEI [R19D] is lower in protein stability index: 2.14 for the first, 2.11 for the second.

Going from KTIEELRDKILTATIENNNVILEI [R19N] to KTIEELRDKILTATIENNWVILEI [R19W], the protein stability index rises from 1.76 to 2.74.

Going from KTIEELRDKILTATIENNSVILEI [R19S] to KTIEELRDKILTATIENNVVILEI [R19V], the protein stability index rises from 2.23 to 2.64.

First: KTIEELRDKILTATIENNTVILEI [R19T]
Second: KTIEELRDKILTATIENNPVILEI [R19P]
The protein stability index of the first is higher: 2.99 for the first, 2.25 for the second.

Going from KTIEELRDKIMTATIENNRVILEI [L11M] to KTIEELRDKITTATIENNRVILEI [L11T], the protein stability index falls from 2.94 to 1.91.

Going from KTIEELRDKIYTATIENNRVILEI [L11Y] to KTIEELRDKIATATIENNRVILEI [L11A], the protein stability index falls from 3.58 to 1.3.

Compared with KTIEELRDKIRTATIENNRVILEI [L11R], KTIEELRDKIGTATIENNRVILEI [L11G] is higher in protein stability index: 1.39 for the first, 1.87 for the second.

Going from KTIEELRDKIETATIENNRVILEI [L11E] to KTIEELRDKIHTATIENNRVILEI [L11H], the protein stability index falls from 1.92 to 1.52.

Going from KTIEELRDKIPTATIENNRVILEI [L11P] to KTIEELRDKIQTATIENNRVILEI [L11Q], the protein stability index rises from 1.95 to 2.72.

First: KTIEELRDKIDTATIENNRVILEI [L11D]
Second: KTIEELRDKIFTATIENNRVILEI [L11F]
The protein stability index of the first is lower: 1.57 for the first, 2.34 for the second.

Compared with KTIEELRDKICTATIENNRVILEI [L11C], KTIEELRDKIKTATIENNRVILEI [L11K] is lower in protein stability index: 2.33 for the first, 1.59 for the second.

Going from KTIEELRDKISTATIENNRVILEI [L11S] to KTIEELRDKINTATIENNRVILEI [L11N], the protein stability index rises from 2.68 to 2.85.
